Reference: PMC6697748, “Ca^2+-regulated Ca^2+ channels with an RCK gating ring control plant symbiotic associations” (Nature Communications, 2019)

Target: the molecule itself
Assay: crystal structure; Ca2+-bound state: protein purified with 1 mM CaCl2 in 50 mM Tris-HCl pH 8.0, 250 mM NaCl; crystals in 21% PEG 550 MME, 50 mM MgAc2, 100 mM Tris pH 8.2, 20 °C; space group I4, one subunit per asymmetric unit, tetramer by crystallographic fourfold; 1.6 Å

B1: LjCASTOR soluble domain (residues 312-853) (domain or fragment, Lotus japonicus, UniProt Q5H8A6 312-853, looked up)
chain: KGKSEVVEQNHTLILGWSDKLGSLLNQLAIANESLGGGTIAVMAERDKEDMELDIGKMEFDFKGTSVICRSGSPLILADLKKVSVSKARTIIVLAEDGNADQSDARALRTVLSLTGVKEGLRGHIVVEMSDLDNEVLVKLVGGDLVETVVAHDVIGRLMIQCARQPGLAQIWEDILGFENCEFYIKRWPQLDGMLFEDVLISFPAAIPCGIKVASYGGKIILNPDDSYVLQEGDEVLVIAEDDDTYAPAPLPMVRRGSLPKDFVYPKSPERILFCGWRRDMEDMITVLDASLAPDSELWMFNDVPEKEREKKLIDGGLDISRLENISLVNREGNAVIRRHLESLPLESFDSILILADESVEDSAIQADSRSLATLLLIRDIQARRLPYVAMASQTQGGNFSKGSWIGEMKQASDKTVIISEILDPRTKNLLSMSKISDYVLSNELVSMALAMVAEDRQINDVLEELFAEEGNEMHIRQADIYLREGEEMSFYEIMLRARQRREILIGYRLANAERAVINPPAKTGRRKWSLKDVFVVITEKE
notes: CASTOR ion channel from Lotus japonicus, soluble domain after the transmembrane region, residues 312-853; two tandem RCK domains (RCK1 320-552, linker 553-580, RCK2 581-853); Cloned into pQE60 with a C-terminal hexahistidine tag; no removal of the tag is described; A selenomethionine-substituted form was used for phasing only; Residues 699-726 have no electron density; also called LjCASTOR RCK …
  stoichiometry N: 4
